B1: TPR t1 (parent)
chain: GACCAAUCUGCCCUCAGAGCUCGAGAACAUCUUCGGAUGCAGAGGAGGCAGGCUUCGGUGGCGCGAUAGCGCCAACGUCCUCAACCUCCAAUGCAUCCCACCACAUGAUGAUGCCUGAAGAGCCUUGGUUUUUUG

Variants of: B1
Assay: polymerase ribozyme fitness, log enrichment relative to wild type (log ratio); higher = more active; in vitro selection for triplet polymerase activity
Method in brief: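 A single round of triplicate in vitro selection, including frozen incubation at −7 °C, was applied to PCR-built, transcribed mutant libraries of each subunit of a heterodimeric triplet polymerase ribozyme. Illumina sequencing of input and output libraries retained genotypes with ≥10 input reads and ≥1 read per output. Fitness is the base-2 logarithm of genotype enrichment divided by wild-type enrichment, from inverse-variance-weighted replicate averages.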

| Variant | polymerase ribozyme fitness (log ratio) |
| --- | --- |
| C62A C101A C114A | -3.81 |
| C62A C101A G113A | -2.77 |
| C62A C101U | -2.3 |
| C62A C114A | -2.71 |
| C62A G77C U87A | -1.71 |
| C62A G77U C114G | -4.81 |
| C62A G77U C115G | -2.95 |
| C62A G93U C101G | -5.19 |
| C62A G107A | -5.05 |
| C62A G110A | -2.12 |
| C62A G110C G127U | -5.37 |
| C62A G117C | -4.72 |
| C62A G120C | -0.534 |
| C62A U78A A91U A111C | -4.78 |
| C62A U78C G117A | -3.04 |
| C62A U81A G93A | -2.69 |
| C62A U81G | -5.64 |
| C62A U87G U106G | -2.77 |
| C62A U109G G110U | -4.7 |
| C62A U116G G120C U129A | -3.57 |
| C62A U133A | -1.52 |
| C62G | -1.53 |
| C62G A83U A84U | -2.65 |
| C62G A83U U96A | -4.56 |

| Variant | polymerase ribozyme fitness (log ratio) |
| --- | --- |
| C62G A105G | -4.99 |
| C62G A119U G128C | -4.08 |
| C62G C76G U112A | -3.99 |
| C62G C79U | -1.14 |
| C62G C82U G117C | -5.97 |
| C62G C102A C115A | -2.67 |
| C62G C124A | -0.74 |
| C62G C124U | 0.784 |
| C62G G93C | -3.7 |
| C62G G93C G120A U125G U131G | -3.65 |
| C62G G120U | -1.64 |
| C62G G122U | -1.08 |
| C62G U78C | -1.87 |
| C62G U106C | -2.05 |
| C62G U112G | -1.83 |
| C62U | -0.118 |
| C62U A83G | -1.18 |
| C62U A84C | -1.06 |
| C62U A84C C89A C123U | -1.62 |
| C62U A95U C114U | -3.03 |
| C62U A111C | 0.533 |
| C62U A121G | 2.41 |
| C62U C64U | -0.305 |
| C62U C70G C72U G120U | -2.44 |

| Variant | polymerase ribozyme fitness (log ratio) |
| --- | --- |
| C62U C72U | -1.03 |
| C62U C73A G113A | -1.96 |
| C62U C73U C79U C80U U112A | -3.4 |
| C62U C76G A83U C89G U116C U130G | -2.99 |
| C62U C80U C97U | -0.921 |
| C62U C86A | -0.731 |
| C62U C86U | -0.567 |
| C62U C88G C114G | -3.23 |
| C62U C89G G93A C101U G113C C114U G127C | -4.42 |
| C62U C89U | -0.519 |
| C62U C97A | -5.14 |
| C62U C97G U132A | -3.9 |
| C62U C98A A103C U129C | -6.12 |
| C62U C98U A111U G120C | -4.23 |
| C62U C104G | -7 |
| C62U C114G | -3.11 |
| C62U C114U | -1.82 |
| C62U C123U | 1.47 |
| C62U C124U | 0.977 |
| C62U G63U A103C C114A | -4.66 |
| C62U G69A | -3.76 |
| C62U G93A | -0.42 |
| C62U G107C | -5.77 |
| C62U G110U | -1.14 |

| Variant | polymerase ribozyme fitness (log ratio) |
| --- | --- |
| C62U G120A | 1.09 |
| C62U G135U | -0.561 |
| C62U U78A C89U G117A | -2.6 |
| C62U U78C U106C | -0.597 |
| C62U U78G C86U | -0.761 |
| C62U U87C | -0.408 |
| C62U U125A | -1.11 |
| C62U U125G G127C | -1.39 |
| C62U U129C | 0.0239 |
| C62U U129G | -1.28 |
| C62U U133G | -1.15 |
| G63A A74U C102U A111U U129G | -5.79 |
| G63A A84U C86A U125G | -2.61 |
| G63A C70G C73A | -5.82 |
| G63A C72G | -3.11 |
| G63A C73A C114G | -5.85 |
| G63A C73U U130G | -0.938 |
| G63A C80A | -4.42 |
| G63A C89G | -2.7 |
| G63A C89U | -1.62 |
| G63A C102U C114A | -6.03 |
| G63A C114U | -2.82 |
| G63A C115G | -3.51 |
| G63A G69U C79U | -0.72 |

| Variant | polymerase ribozyme fitness (log ratio) |
| --- | --- |
| G63A G71A | -2.59 |
| G63A G77C A119U | -2.08 |
| G63A G93A | -1.38 |
| G63A G93A C97U U130A | -2.59 |
| G63A G93A G120U | -1.07 |
| G63A G93U C98U A121G | -0.418 |
| G63A G107A | -6.55 |
| G63A G110C C115G G120U | -7.28 |
| G63A G113A | -1.68 |
| G63A G113U | -2.82 |
| G63A G120A | -0.19 |
| G63A G122A | -1.62 |
| G63A G128U | -3.07 |
| G63A U78C A83G C88G | -3 |
| G63A U78C G113A | -1.96 |
| G63A U81C A90U | -4.66 |
| G63A U87G A111C | -1.52 |
| G63A U96G C124U | 0.174 |
| G63A U106A | -1.29 |
| G63A U106G | -2.57 |
| G63A U109C | -2.75 |
| G63A U112C | 0.988 |
| G63A U116C | -0.908 |
| G63A U126G | -2.3 |

| Variant | polymerase ribozyme fitness (log ratio) |
| --- | --- |
| G63A U126G U130G | -4.43 |
| G63A U131G | -1.53 |
| G63A U131G G135U | -0.787 |
| G63A U133A | -0.918 |
| G63C A66U G77C A91C C94A | -6.25 |
| G63C A90C | -2.06 |
| G63C A90U | -2.23 |
| G63C C70U A90G | 0.0962 |
| G63C C72U G107A C124U | -6.17 |
| G63C C79G | -0.109 |
| G63C C79U G117U | -2.56 |
| G63C C80U | -2.4 |
| G63C C85A | -3.22 |
| G63C C85G U130G | -1.36 |
| G63C C85U A111C G122C | -3.75 |
| G63C C88A | -1.08 |
| G63C C88U | -1.29 |
| G63C C89U | -1.31 |
| G63C C94A | -1.52 |
| G63C C101U | -1.5 |
| G63C C102A | -2.59 |
| G63C C115U | -1.32 |
| G63C G65A G117C A119G A121C | -7.02 |
| G63C G77C | -2.42 |

| Variant | polymerase ribozyme fitness (log ratio) |
| --- | --- |
| G63C G93U | -1.7 |
| G63C G113U | -3.35 |
| G63C G117C A119U | -4.1 |
| G63C G117C C123G | -2.31 |
| G63C G117U G120A | -2.53 |
| G63C G128C | -3.04 |
| G63C U78A G110U | -3.31 |
| G63C U78C A105C | -3.52 |
| G63C U92A | -4.04 |
| G63C U92A U132A | -3.33 |
| G63C U116A C123U | -1.91 |
| G63C U116C | -1.29 |
| G63C U126G | -1.74 |
| G63C U130C | -1.1 |
| G63U A84C U130A | -2.23 |
| G63U A84U C86A G128U U130C | -3.81 |
| G63U A90U | -3.53 |
| G63U C70A G127C | -0.596 |
| G63U C82A C104U A108C | -6.05 |
| G63U C85U U130A | -2.02 |
| G63U C88A | -1.89 |
| G63U C89A G113A G120C U129G | -5.25 |
| G63U C89U | -1.85 |

— the RNAGym collection of RNA variant scans (doi:10.1073/pnas.2313332121)
